# Changes are numbered by the printed parent chain.
# B1: h528Fv 5.0.0 (other)
# VH: QVQLVQSGAEVKKPGASVKVSCKASGYTFTSYWMHWVRQAPGQGLEWMGNIWPGSGGTNYAEKFKNRVTMTRDTSISTAYMELSRLRSDDTAVYYCARSGGPYFFDYWGQGTLVTVSS
# VL: DIVMTQSPLSLPVTPGEPASISCRSSQNIVHNNGITYLEWYLQKPGQSPQLLIYKVSDRFSGVPDRFSGSGSGTDFTLKISRVEAEDVGVYYCFQGSHIPPTFGQGTKVEIKR
# B2: h528Fv WT (other)
# VH: B1 VH with W52Y
# VL: B1 VL
# notes: Fv fragment: VH and VL co-expressed in E. coli BL21; Purified by metal chelate chromatography; the tag is not described; also called wild type humanized Fv
# B3: h528Fv 5.11.T (other)
# VH: B1 VH with S55T, K65Q, N66Q, A97T
# VL: B1 VL
# B4: h528Fv 5.12.0 (other)
# VH: B1 VH with S55K, K65Q, N66K
# VL: B1 VL
# B5: h528Fv 5.73.0 (other)
# VH: B1 VH with S55N, K63Q, N66Q
# VL: B1 VL
# B6: h528Fv 5.98.0 (other)
# VH: B1 VH with S55Q, N66S
# VL: B1 VL
# Target: T1, soluble EGFR (human epithelial cell growth factor receptor 1, Her1) (human, UniProt P00533 25-645, limits assumed)
# T1 construct: The metal chelate purification implies a His tag, but none is described; also called target antigen
# Assay: ITC; lower end tied to 5.0.0 by Table 4 (14.9 against 1.9)
# Method: (§1) The resulting mutants were then subjected to thermodynamic analysis by means of Isothermal Titration calorimeter. […] Binding enthalpy (ΔH) and binding coefficient (Ka) were calculated from the change of calorie during the above titration. Free Energy Change (ΔG) and Binding Entropy Change (ΔS) were then calculated from the above values.
row,Binder,fold increase of Ka over h528Fv WT [fold]
1,B1,8 to 33

# Target: T1, soluble EGFR (human epithelial cell …)
# Assay: ITC, 50 uM Fv titrated into 5 uM soluble EGFR
# Method: as §1
Binder,Ka [M⁻¹],TΔS [kcal/mol],ΔG [kcal/mol],ΔH [kcal/mol]
B2,1.9e+07,-4.66,-9.92,-14.6
B1,1.49e+08,-9.85,-11.2,-21
B3,5.24e+08,-8.08,-11.9,-20
B4,4.42e+08,-4.88,-11.8,-16.7
B5,4.95e+08,-5.14,-11.9,-17
B6,5.05e+08,-6.43,-11.9,-18.4
